From article doi:10.1101/2022.11.09.515782

Biological target: glycophorin A TMD, BLaTM chimera
Experiment: split reporter

glycophorin A TMD, BLaTM chimera (domain or fragment)
ampicillin LD50: 100 µg/mL
